Source: patent publication US20030236190A1 (published 2003)
Non-standard residues stand in square brackets, D forms with d. No end group written: not given here.

B1: S456 (peptide)
peptide 1: XGSLDESFYDWFERQLGKK
peptide 2: XKEWLDQEWAWVQCEVYGRGCPSEE
modifications: not fully specified; N-terminal Ald
B2: S439 (peptide)
peptide 1: ESFYDWFERQLGGGGK
peptide 2: QEWAWVQCEVYGRGCPS
modifications: not fully specified (bridges); cysteine pairing not given here; also: K16 of chain 1 chemically linked to C-terminus of chain 2 (C-C on a lysine)
B3: S437 (peptide)
peptide 1: ESFYDWFERQLGGGGK
peptide 2: LDQEWAWVQCEVYGRGCPS
modifications: not fully specified (bridges); cysteine pairing not given here; also: K16 of chain 1 chemically linked to C-terminus of chain 2 (C-C on a lysine)
B4: S442 (peptide)
peptide 1: ESFYDWFERQLGGGGK
peptide 2: AWVQCEVYGRGCPS
modifications: not fully specified (bridges); cysteine pairing not given here; also: bond at chain A 16 to a chain's C-terminus
B5: S440 (peptide)
peptide 1: ESFYDWFERQLGGGGK
peptide 2: EWAWVQCEVYGRGCPS
modifications: not fully specified (bridges); cysteine pairing not given here; also: K16 of chain 1 chemically linked to C-terminus of chain 2 (C-C on a lysine)
B6: S441 (peptide)
peptide 1: ESFYDWFERQLGGGGK
peptide 2: WAWVQCEVYGRGCPS
modifications: not fully specified (bridges); cysteine pairing not given here; also: K16 of chain 1 chemically linked to C-terminus of chain 2 (C-C on a lysine)
B7: S438 (peptide)
peptide 1: ESFYDWFERQLGGGGK
peptide 2: DQEWAWVQCEVYGRGCPS
modifications: not fully specified (bridges); cysteine pairing not given here; also: K16 of chain 1 chemically linked to C-terminus of chain 2 (C-C on a lysine)
B8: S381 (peptide)
peptide 1: EEDWLQRNANFYDWFVAELX
peptide 2: EEDWLQRNANFYDWFVAELX
modifications: C-terminal Lig′ coupled to linker 23
notes: dimer, C-C
B9: S379 (peptide)
peptide 1: GSLDESFYDWFERQLGKKKX
peptide 2: GSLDESFYDWFERQLGKKKX
modifications: C-terminal Lys carrying Ald coupled to linker 19
notes: dimer, C-C
B10: S378 (peptide)
peptide 1: GSLDESFYDWFERQLGKKKX
peptide 2: GSLDESFYDWFERQLGKKKX
modifications: C-terminal Lys carrying Ald coupled to linker 17
notes: dimer, C-C

Molecular target: human insulin receptor (HIR) (human, UniProt P06213 28-1382, limits assumed)
Test: 125I-insulin competition, solubilised HIR

Question: LDQEWAWVQCVYGRGCPSESFYDWFERQLG [S486] was tested. Which Kd did it give?
Answer: 57 nM

Question: B1 was tested. Which Kd did it give?
Answer: 2.4 nM

Question: For B2, which Kd is on record?
Answer: 46 nM

Question: With SLEEEWAQVECEVYGRGCPSGGSGGSGLLDESFYHWFDRQLR [S510] as the binder, how does the Kd read?
Answer: 0.062 nM

Question: With WLDQEWAWVQCEVYGRGCPSGGSGGSGRVDWLQRNANFYDWFVAELG [S511] as the binder, how does the Kd read?
Answer: 3.8 nM

Question: How did the Kd turn out when WLDQEWAWVQCEVYGRGCPSGGSGGSSQAGSAFYAWFDQVLRTV [S512] was run?
Answer: 28 nM

Question: For LDQEWAWVQCEVYGRGCPSESFYDWFERQLG [S471], which Kd is on record?
Answer: 0.67 nM

Question: How did the Kd turn out when ADQEWAWVQCEVYGRGCPSESFYDWFERQLG [S494] was run?
Answer: 17 nM

Question: B3 was tested. Which Kd did it give?
Answer: 0.69 nM

Question: For B4, which Kd is on record?
Answer: 160 nM

Question: Which Kd does the source give for ESFYDWFERQ [S400] here?
Answer: 630 nM

Question: SIEEEWAQIKCDVWGRGCPPGLLDESFYHWFDRQLR [S520] was tested. Which Kd did it give?
Answer: 0.02 nM

Question: Which Kd does the source give for HLCVLEELFWGASLFGYCSGGSLDESFYDWFERQL [S521] here?
Answer: 27 nM

Question: How did the Kd turn out when WLDQEWAWVQCEVYGRGCPSGGSGGSGSLDESFYDWFERQLG [S457] was run?
Answer: 1.6 nM

Question: For WLDQEWAWVQCEVYGRGCPSGGSGGSGSLDESFYDWFERQLG [S458], which Kd is on record?
Answer: 3.2 nM

Question: For RLEEEWAWVQCEVYGRGCPSGSLDESFYDWFERQLG [S518], which Kd is on record?
Answer: 0.16 nM

Question: SLEEEWAQVECEVWGRGCPSGSLDESFYDWFERQLG [S541] was tested. Which Kd did it give?
Answer: 0.0078 nM

Question: For SLEEEWAQVEAEVYGRGAPSGSLDESFYDWFERQLG [S551], which Kd is on record?
Answer: 0.072 nM

Question: With SLEEEWAQVECEVYGRGCPSGSLDESFYH[dW]FERQLG (cysteine pairing not given here) [S542] as the binder, how does the Kd read?
Answer: 0.027 nM

Question: SLELEWAQVECEVYGRGCPSGSLDESFYDWFERQLG [S539] was tested. Which Kd did it give?
Answer: 0.098 nM

Question: How did the Kd turn out when SLEHEWAQVECEVYGRGCPSGSLDESFYDWFERQLG [S537] was run?
Answer: 0.044 nM

Question: Which Kd does the source give for SLEQEWAQVECEVYGRGCPSGSLDESFYDWFERQLG [S538] here?
Answer: 0.038 nM

Question: For SLEEEWAQVKCEVYGRGCPSGSLDESFYDWFERQLG [S540], which Kd is on record?
Answer: 0.013 nM

Question: How did the Kd turn out when B5 was run?
Answer: 99 nM

Question: Which Kd does the source give for ESFYDWFERQL [S399] here?
Answer: 95 nM

Question: LDEWAWVQCVEYGRGCPSESFYDWFERQLG [S483] was tested. Which Kd did it give?
Answer: 52 nM

Question: Which Kd does the source give for LDQEWAQVQCEVYGRGCPSESFYDWFERQL [S533] here?
Answer: 0.067 nM

Question: How did the Kd turn out when LAQEWAWVQCEVYGRGCPSESFYDWFERQL [S495] was run?
Answer: 2.6 nM

Question: LDQAWAWVQCEVYGRGCPSESFYDWFERQL [S497] was tested. Which Kd did it give?
Answer: 2.5 nM

Question: LDQEWAWVQCEVAGRGCPSESFYDWFERQL [S504] was tested. Which Kd did it give?
Answer: 13 nM

Question: Which Kd does the source give for LEEEWAQVECEVYGRGCPSESFYDWFERQL [S536] here?
Answer: 0.083 nM

Question: Which Kd does the source give for LDQEAAWVQCEVYGRGCPSESFYDWFERQL [S498] here?
Answer: 56 nM

Question: Which Kd does the source give for LDQEWAWVQCEAYGRGCPSESFYDWFERQL [S503] here?
Answer: 2.1 nM

Question: Which Kd does the source give for LDQEWAAVQCEVYGRGCPSESFYDWFERQL [S499] here?
Answer: 0.62 nM

Question: Which Kd does the source give for LDQEWAWVQCAVYGRGCPSESFYDWFERQL [S502] here?
Answer: 3 nM

Question: How did the Kd turn out when B6 was run?
Answer: 120 nM

Question: With B7 as the binder, how does the Kd read?
Answer: 30 nM

Question: GSLDESFYDWFERQLGGGSGGSWLDQEWAWVQCEVYGRGCPS [S459] was tested. Which Kd did it give?
Answer: 0.076 nM

Question: GSLDESFYDWFERQLGGGSGGSWLDEEWAQVQCEVYGRGCPS [S543] was tested. Which Kd did it give?
Answer: 0.019 nM

Molecular target: T1, Soluble IGF-1R (R&D Systems, Cat. # 391-GR/CF); recombinant human IGF-1R (human, UniProt P08069 31-935)
T1 construct: extracellular domain; Eu3+-labelled in the TR-FRET assays; also called sIGF-1R; rhIGF-1R
Test: phage ELISA, vs IR

Question: How did the “IGF-1R/IR Comparison” value turn out when RGAVAGFHDQFYDWFDRQVSRVHKFG [H2CA-4-E9-IGFR] was run?
Answer: 3 ratio

Question: How did the “IGF-1R/IR Comparison” value turn out when CCTTEMVVMDARDDPFYHKLSELVTGG [B6Hα-1-B5-IR] was run?
Answer: 20.5 ratio

Question: How did the “IGF-1R/IR Comparison” value turn out when YRGMLVLGRISGGAGKAASERPARIGQKVSAVNFYDWFV [A6L-0-H3-IR] was run?
Answer: 13 ratio

Molecular target: T1, Soluble IGF-1R (R&D Systems, Cat. # …)
Test: phage ELISA vs milk

Question: Which “Ratio over Background” value does the source give for RGAVAGFHDQFYDWFDRQVSRVHKFG [H2CA-4-E9-IGFR] here?
Answer: 5.6 fold

Question: With CCTTEMVVMDARDDPFYHKLSELVTGG [B6Hα-1-B5-IR] as the binder, how does the “Ratio over Background” value read?
Answer: 20.5 fold

Question: Which “Ratio over Background” value does the source give for YRGMLVLGRISGGAGKAASERPARIGQKVSAVNFYDWFV [A6L-0-H3-IR] here?
Answer: 26 fold

Molecular target: T2, human insulin receptor (HIR) (human, UniProt P06213 28-1382, limits assumed)
T2 construct: Detergent-solubilised receptor; The natural receptor is an alpha2-beta2 heterotetramer cleaved from one precursor
Test: 125I-insulin displacement, solubilised HIR

Question: For SLDESFYDWFERQLG [S387], which Kd is on record?
Answer: 630 nM

Question: Which Kd does the source give for LDESFYDWFERQLG [S388] here?
Answer: 340 nM

Question: With B8 as the binder, how does the Kd read?
Answer: 120 nM

Question: With B9 as the binder, how does the Kd read?
Answer: 56 nM

Question: Which Kd does the source give for GSLDESFYDWFERQLG (also called RP9 minus terminal lysines) [S386] here?
Answer: 320 nM

Question: How did the Kd turn out when GSLDESFYDWFERQL [S395] was run?
Answer: 8100 nM

Question: For FYDWFERQLG [S392], which Kd is on record?
Answer: 3800 nM

Question: With GSLDESFYDWFERQ [S394] as the binder, how does the Kd read?
Answer: 91 nM

Question: Which Kd does the source give for B10 here?
Answer: 65 nM
